experiment: soluble fraction after stress (log2 fold change); higher = more stays soluble; pooled small domains, quantitative proteomics; conditions: stress: 75 degC
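Note: 20 min heating vs room temperature control held 20 min.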

| Sequence | soluble fraction (log2) |
| --- | --- |
| HMQSVKTQPLRDWLLAHFDKPYPDDEDKVRLAEASGMTRAQVGNWFINARVRTWRPMVLDLGEEIERESV | -0.325 |
| HMQTEFVISSGEQPKRLDVFLLQREPYLSRAALQRMIAAGWVRVNNHLAKSSQRIKAGDVIVFD | -1.42 |
| HMQTFGTMIAALRKEQGMTQLELAEKMGVTDKAVSKWERDLSFPDVNSLPKLAEIFHVSVDEL | -0.16 |
| HMQTLGADLRALRKARGLTLTDMAETLGRSVGWLSQVERDLSEPSITDLRHMARTLGVSVSMLFS | -1.52 |
| HMQTLQNNLKQIRSRVGLTQGELASRAGISRQAYSTLESGNANPSTEVSLRLAEALNERIESLFFLANQ | -0.495 |
| HMQTSETVYTTDKVNVRAGADTSSDKLGSVEKGTSLTRTGTDGDWSIIDYNGTTGYIKSEYLSATAPE | 0.566 |
| HMQTTKTGTITASSLYVRSGASTSHKVLGTVSKGKTVQIKDTQDGWHKISYNGDHGWVSGKYVSTT | 0.226 |
| HMQTTVHLSPEEMVIMNALKQESPIDLPILRAQVEMSNKLWDTSMKNLSKLGQLKVEKIGEQVSVSLI | -0.582 |
| HMQVAPDLMQRLTSQGHVDEKLSDALVHARQITNFEGRRRQMQFIGKLMRKLSEESIEAVKDALNEQRM | -0.313 |
| HMQVDENNINKRIDKYLSENTEYSRSTIQKMIDNGNITVNSKPTKSSYKLELNDIITIDNNFKE | 0.0359 |
| HMQVEYTRGELIQDLEGGKIVYAGISPSRETPTGEVNFILDSGLTRTLYVTDVSEIEQLLISYDIDPEVKK | -0.0196 |
| HMQVFDSNEIDEVVKKVIENNPQAVADFKKGKSNALQFLAGQVMRETKGRFNPNVVQERIRLLLT | 0.671 |
| HMQVLLTRREKEILKLIAEGLTSAEIGKRLFISTTTVDTHRKHLLEKLKAGNTAILIKTAVQLDLI | -2.53 |
| HMQVPWYQRLKEKRLEYGVSQNKLATHIGISRQYMSEIETGKVTPSDSLQATLFDILEQFNPDA | -0.817 |
| HMQVRVERSRDKVVISGVNYYIHPVRKGETVYSIARAYGITTQDLVRENPSAAEGLKEGQSIRIPERLVD | -0.438 |
| HMQVSDEGPIKAILQEVLDKSPTQLADYASGKVKLRQYFFGEAMKALKGKANPQVINKLLDEMLPPVAA | -0.0324 |
| HMQVSDVTELRTILEKVITENESVATEFKEGKDAAMNFLVGQGMKATRGAADPALLKEIITGIL | -0.0525 |
| HMQVSITGYLGGEKIGLFDDAKFKALAAKQGIAIDYRKAGSPAMMDADRKGMDYLFPSSRAAVEYGNAKGV | -0.00209 |
| HMQVTDTGTIEGEIDKVLAANPDRVTEYHDGKEKILGWFVGQVMQTTKGKANPQMVNQLFLEKLK | 0.0105 |
| HMQVTPQVLRLLDVLGDKELSLRQIAEALGLSDRKNIMRNYVVPALDSGRVVRTVPNKPNSRFQKYRK | -0.739 |
| HMQYDALVLNLLQEKNLTSESLKDAQRAFAKSHNLSTLPSKSQILQAYFQLLEQGKIEKNPDFELLL | -0.394 |
| HMQYFDIETEIQKFIKSENNLSDFDKETLQSFLYQLSKGSPEENTAKKVVDILNKFLPLTTAIINMIKALT | 0.0503 |
| HMQYYITKIANYDQVSPNLLVRTAEGQYMVKTNADILDTDVTKLTEEEIRKDWGYLFENGFSELV | -0.498 |
| HMRAAEPTTDAQRDRRRRIVLTAMTMLQERGYDEIQMRDVAQQAGVALGTLYRYFPSKEQLFAHVLVE | -1.71 |
| HMRAAFEHLTIGQTVSGLVKSQARGVSLVEIEGQTVAMRLPQPVAVGDTLRLRFAGHMPQPVFLLDT | -1.59 |
| HMRADYVGGLDPAGDNFLALRTGPGSGYAMILPMGPGTFVTVLRRNGKWLLVELEDGTRGWAYGSYILG | -2.32 |

| Sequence | soluble fraction (log2) |
| --- | --- |
| HMRAGALTTLTERERNVFDLVVTGHSNPEIARQLSIADVTVKTHVGHILSKLGVRDRVHLVIWAHRQGLAD | -2.84 |
| HMRAMWENLFFQYKEGFLPEEYYKQGIATGIRLAGPKFVEMNIPMQKEFEDEVHRLLAEHEKSVK | -0.914 |
| HMRASVTYVVQVNGKLRGKLEVAPDIDPEELKKLALEVENVKHSLQGWTVKKVIVIPGKMVSIAAGK | -1.78 |
| HMRAVEGKRLKRLLRTNLIAIERDQILQYPLRKRPLAIVTRAVRATNPDAVIVNDAGDDVFARALDVLLAS | -1.44 |
| HMRDAKSQLQEALQKSGRLPEYELVSVEGPPHAPVFTYRVRIDGAVVGEGQGASKQAAQQAAAQSALKSG | 0.0311 |
| HMRDDAIQQGREIVERELHRLDLAYTTLTDVLAKLEYEKLDDLYAAVGFGIRSPHSVAAAALQVERDKA | -0.322 |
| HMRDGHEQLQGVLSAIKFHQANFLIGVLDDGTTVKGNMLSPQVGLEYTFRGRRERHPRWGEQFAFMDYRV | -3.31 |
| HMRDIGKNIRYYREKKGYSQEQLAQLLFVTRQTVSNYETSRSRPDVETLVKLAGLLDIDVTDLIYGPR | -2.74 |
| HMRDKSITFSEFVKLLDEGQIQKVTLTGNEILGTQKSGDKFRTYAPPQYEGLGNKLVERSVEVTAKE | 0.378 |
| HMRDLVTYVVQVNGKLRGKLEVSPSTDDNSLKTMALELENVQRALEGLSVKKVIVIPGKMVSIAAG | -0.972 |
| HMRDVVVVPDLSGLTQMEALSKLDAESLNIGEINYGVSEMPEGVIFKQDPVYGTELMKGDTVDIFISGR | -0.423 |
| HMRDYKTHLQEVLQSKGEVNIWYKLIDEKGPDHNKKFVMQVGIDSKILGFGEGKSKKEAEQVAARKALDNI | -0.384 |
| HMREGIQLGDPVRVIRDPLFGKIGAVSGLPSELRAIPTESEVRVLEVRFPDGTTTVVPRANIEVIEG | 0.487 |
| HMREIEVNYAAGDSVRVIDGPLAGFIGVVSSVEPDKNKVNVTVSMFGRETPVELELDQVETLD | 0.111 |
| HMREISSDELHSLFSADQRGDLVINETTRLSIEKLYALHTPEEREAKVNELSGVLPSEAHRQLVHFLDYFD | -1.42 |
| HMREITVEELYELEGIRIVGTIPGISAWVAESGRQMVFLVGQKVKGHDLLEVGESRVVLRKGDSVVNVLL | -1.56 |
| HMREKPRETFQRIAEKVGQTLRKGPVRVQQMDLLFSESREQVMEVLRAMAESGEIRIQDDTLHWNGHT | 0.173 |
| HMRELPKRPEIRYAAGDRVFHKAFGNGLVKQVAQTAGGARVTVDFGEGKGVKTFAGDAPMIKI | 0.391 |
| HMRELSDFEKLLFTTTLERKMINLAMLLTRSNKADSKDLIQDSYLKAIENQVQFNGNNIDAWVITILKNTF | -0.352 |
| HMRENAARNRNVNLDIGETLRVDAWSPERRARVQYRGAAWDVELAPNAPATVGEFRIVEVRGNVLVVTP | -0.604 |
| HMREPIPVPSRPIRAGDLVEIPGTNRPAEVTAVKGDRLVLKAGVLSMTVKNDEVRLIEDDERAAM | 0.505 |
| HMREQAHEVAGKLGYPVMVKASAGGGGKGIRIVRTEDELDQAFEAAQSETKAAFGDDQMYMEKVI | -0.0878 |
| HMRESDQSTVELSLERTIQEALMVNPRTSSVEEFSFEWGTGRVKVSFIVYSVDGEPFTVDSIIE | -2.45 |
| HMREVEAPRDLLAALGERPGALDAWKALSFTHQREYVEAIEDARKPETRERRIANAVKMVAERS | 0.386 |
| HMREVPHGEYEVKIEKLELVESKAGDPMVTVWFKVLAGDYKGSMIFMNQVITKGFQIHIMNEFLR | -0.308 |
| HMREYEKAVDYVRRMISSGSLNVGDRLPTERELSLELDISRNSTREAMRMLENMGIIVSRHGSGNYISGN | -0.682 |

| Sequence | soluble fraction (log2) |
| --- | --- |
| HMRFDADELQKAYDLFDADENTPFKTIKQAYYALARRHHPDKNGDQEYFKVINNAFQLIQEHRRRRDN | -0.437 |
| HMRFGNHHVYRTLMVLSDQKRKGRKQIADAVGIGEGSMRTIIEYLRGLDMIDIRQTGVKITRHGNAFL | -0.115 |
| HMRGAARRDRAVGERAVSKDTILDATRALLRKGSALEIRAIDIAEESGLSRQTVFQYYPVIRLIFFELSD | -0.00574 |
| HMRGETSYANDIIKRLKQANLIVVEGTLYPLLNRLKKDGLLHYEWRESQQGPPRKYYGLTEEGEA | -0.273 |
| HMRGFGEVGQLPSGRYRARYTGPDGGRHSAPITFVARIDAEGWLVDQERMISRGEWEPPARQ | -0.238 |
| HMRGFGYVRRLPSKRYQASYAGPDLQRHVAPTTFTTKADAESWLGAERKVVESGSWRPPAVREAEARLS | 0.462 |
| HMRGLIEPLSQRELEVLMLMARGQSNAHIADQLNISENTIKWHGRNIFGKLGVSNRTEAVITSQEMGMLAT | -0.727 |
| HMRGRFGNAAPARNLGDHPQGGAINVKAGRYGPYVSWGKVNATLPKDSDPEKVTLEEAVALIAAKQSGQG | -0.111 |
| HMRGVDRPLTLPRHWRRNAGRLVKVTLANGSAVTGRVLDPGEERVTLEVSGERHEVAYADVKKALVQVEF | -2.07 |
| HMRHLSVPNRQVEGALDHIRSQGWLAEGMRVFASEDGSARLIPLGPGAPLEMLEPLAKFDVISHEGKPY | -0.149 |
| HMRHSLAAALTELRRLAALDLGDFFRFEYVSHTDSLGGKQQAYTEGIRVSFGVYLGVNKKDRLNVDPVV | -3.42 |
| HMRHTRQRQAVLDALVRSGQALSPQDLLGQAKSAVPSLNLSTVYRQIKGLQDAGQIVRVELPGQPPRFEM | -0.0693 |
| HMRIAQYRQIENDLLEQINLGYYKKGDLIPTELELSATYHVSRVTVRKATDNLVAKGILQRVAGVGTFVSR | -3.14 |
| HMRIATVTPIEEDQASDRVVAVYNDIKSTKQIDFIPNFWKVIAVNPDLLEQVWGQLKTLMHPEEVG | -0.996 |
| HMRIEDTMDYINKIKEKLKNNGGVITSKEFTRSNIPTIYLTRMVETGELIRIDRGIYINSSG | -0.781 |
| HMRIEYYDDEELDRYIGTPASGYREAAVEEFREILLTLDADDVPGWVRSLQLRGIEFPESLRPELYL | -0.568 |
| HMRIFDDNMIFPTEAEISAALKRLVMDLPKVGFLQGHGERAVDNVGERAYSMFTHANNFRYALINQGFVT | -0.029 |
| HMRIHKQLGDRIRNLRLSSGMNQEELAFKSGISAAHLGQIERGLKSPTISTIQKIAKALNVTLPILF | -0.631 |
| HMRININNASARQIADALPGVGLKTARDIKDFQTTLSGERYTRLDQLHSIKRVDWDEIFKADLVRV | -0.0802 |
| HMRISMRDQVYEIIKNRILSREYSLGEPINIVHLSKELGISNTPIREALSQLETERLITINSNQKYHVT | -0.0513 |
| HMRKDEFLQTLRRALNGNVPPRVVEENVRYYDGYISDEVRKGRSEEEVIEEIGDPRLIARTIEDTT | 0.105 |
| HMRKDRKVLMERGRHIFNDLLEKEGIVATNQLMTKLLASHHLRNRDELYLMLANDDISLSSKEIKDLS | -0.409 |
| HMRKEDYLPIGSVINMDDRKFRVDSVDFDKDKVSLQDMALADARMPIFWEEPLTVVRELYEQQDE | 0.135 |
| HMRKEPSYASDIITRLKEADLIVVEGTLYPLLTRLKKDGLLSYEWRESTQGPPRKYYALTLDGET | -0.47 |
| HMRKIGDVLRLHAGGLSKRRIAVSLNIGRTAVGDYISRARRAGLGWPLPEDLSEEALERLLFPPP | -3.08 |

— the domain aggregation screens of Martell et al. (2025)
